Assay results from US20040224408A1, “THAP proteins as nuclear receptors for chemokines and roles in transcriptional regulation, cell proliferation and cell differentiation” (published 2004).

T1: THAP1-C1 deletion mutant (amino acids 90-213) (human, UniProt Q9NVV9 90-213)
T1 construct: Tested as a Gal4-BD or Gal4-AD fusion, as in vitro translated 35S-labelled protein and as an EGFP fusion; also called THAP1ΔTHAP; THAP1?THAP
T1 sequence: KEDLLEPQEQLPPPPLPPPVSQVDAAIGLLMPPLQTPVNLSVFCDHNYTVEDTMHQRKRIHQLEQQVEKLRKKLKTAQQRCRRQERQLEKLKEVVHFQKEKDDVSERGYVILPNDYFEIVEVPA

T2: THAP1-N2 deletion mutant (amino acids 1-166) (human, UniProt Q9NVV9 1-166)
T2 construct: Tested as a Gal4-BD or Gal4-AD fusion, as in vitro translated 35S-labelled protein and as an EGFP fusion
T2 sequence: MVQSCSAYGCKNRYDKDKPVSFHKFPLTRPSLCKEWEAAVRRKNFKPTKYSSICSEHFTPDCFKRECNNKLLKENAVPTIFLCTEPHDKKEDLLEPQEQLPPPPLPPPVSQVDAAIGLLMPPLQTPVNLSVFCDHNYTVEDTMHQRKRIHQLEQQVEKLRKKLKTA

T3: THAP1-N3 deletion mutant (amino acids 1-192) (human, UniProt Q9NVV9 1-192)
T3 construct: Tested as a Gal4-BD or Gal4-AD fusion, as in vitro translated 35S-labelled protein and as an EGFP fusion
T3 sequence: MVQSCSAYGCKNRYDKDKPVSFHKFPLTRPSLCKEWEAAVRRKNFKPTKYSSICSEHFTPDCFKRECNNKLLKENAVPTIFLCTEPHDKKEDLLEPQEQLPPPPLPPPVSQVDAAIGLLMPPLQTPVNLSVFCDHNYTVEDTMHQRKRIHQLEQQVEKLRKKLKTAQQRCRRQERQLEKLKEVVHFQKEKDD

T4: Par4 deletion mutant lacking the leucine zipper/death domain (amino acids 1-276) (human, UniProt Q96IZ0 1-274)
T4 construct: Tested as a Gal4-BD or Gal4-AD fusion in yeast two-hybrid; also called Par4A; Par4Δ
T4 sequence: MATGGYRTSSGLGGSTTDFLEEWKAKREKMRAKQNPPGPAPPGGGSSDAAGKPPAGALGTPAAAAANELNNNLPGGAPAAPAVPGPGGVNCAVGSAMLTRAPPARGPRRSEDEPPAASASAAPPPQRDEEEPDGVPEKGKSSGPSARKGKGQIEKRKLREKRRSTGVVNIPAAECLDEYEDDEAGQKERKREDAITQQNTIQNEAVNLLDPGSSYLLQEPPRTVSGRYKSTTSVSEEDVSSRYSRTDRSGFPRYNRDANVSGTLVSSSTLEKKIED

B1: human THAP1 (THanatos (death)-Associated Protein-1), full length (other)
chain: MVQSCSAYGCKNRYDKDKPVSFHKFPLTRPSLCKEWEAAVRRKNFKPTKYSSICSEHFTPDCFKRECNNKLLKENAVPTIFLCTEPHDKKEDLLEPQEQLPPPPLPPPVSQVDAAIGLLMPPLQTPVNLSVFCDHNYTVEDTMHQRKRIHQLEQQVEKLRKKLKTAQQRCRRQERQLEKLKEVVHFQKEKDDVSERGYVILPNDYFEIVEVPA
notes: It was tested as a Gal4-BD (pGBKT7) or Gal4-AD (pGADT7); also called hTHAP1; FLJ10477

Columns and labels:
[1] = biological target: T1, THAP1-C1 deletion mutant (amino acids …); assay: yeast two-hybrid, pGADT7-THAP1 mutant with pGBKT7-SLC/CCL21
Procedure: (§1) Two-hybrid interaction between THAP1 mutants and chemokine SLC/CCL21 was tested by cotransformation of AH109 with pGADT7-THAP1-C1, -C2, -C3, -N1, -N2 or -N3 and pGBKT7-SLC/CCL21 and selection of transformants by His and Ade double auxotrophy according to manufacturer's instructions ([…] two-hybrid system 3, Clontech). pGBKT7-SLC/CCL21 vector was generated by subcloning the BamHI SLC/CCL21 fragment from pGBT9-SLC (see example 1) into the unique BamHI cloning site of vector pGBKT7 (Clontech).

[2] = biological target: T2, THAP1-N2 deletion mutant (amino acids …); assay: as above
Procedure: as §1

[3] = biological target: T3, THAP1-N3 deletion mutant (amino acids …); assay: as above
Procedure: as §1

human THAP1 (THanatos …) = biological target: B1; assay: yeast two-hybrid screen of the pGAD424-HEVEC cDNA library with pGBT9-SLC bait (His selection)
Text: In an effort to define the function of novel HEVEC proteins and the cellular pathways involved, we used different baits to screen a two-hybrid cDNA library generated from microvascular human HEV endothelial cells (HEVEC). HEVEC were purified from human tonsils by immunomagnetic selection with monoclonal antibody MECA-79 as previously described (Girard and Springer (1995) Immunity 2:113-123). The SMART PCR cDNA library Construction Kit (Clontech, Palo Alto, Calif., USA) was first used to generate full-length cDNAs from 1 μg HEVEC total RNA. Oligo-dT-primed HEVEC cDNA were then digested with SfiI and directionally cloned into pGAD424-Sfi, a two-hybrid vector generated by inserting a SfiI linker (5′-[…]-3′) (SEQ ID NO: 181) between EcoRI and BamHI cloning sites of pGAD424 (Clontech). The resulting pGAD424-HEVEC cDNA two-hybrid library (mean insert size>1 kb, ˜3×10⁶ independant clones) was amplified in E. coli. […]

[4] = biological target: T5, Glutathione S-transferase (GST) control protein (pGEX-2T) (UniProt P08515 1-218 = GST); assay: GST pull-down, immobilized GST control, in vitro translated 35S-labelled SLC/CCL21
T5 construct: Negative control immobilized on glutathione sepharose; also called GST beads; immobilized GST alone
T5 sequence (P08515 whole entry): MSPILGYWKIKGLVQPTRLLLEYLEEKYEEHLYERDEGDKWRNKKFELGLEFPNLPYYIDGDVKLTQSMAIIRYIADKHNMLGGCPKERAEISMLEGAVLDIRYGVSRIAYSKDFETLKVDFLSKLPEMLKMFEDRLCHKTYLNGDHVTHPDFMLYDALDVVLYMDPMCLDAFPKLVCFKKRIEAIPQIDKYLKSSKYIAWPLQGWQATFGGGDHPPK

[5] = biological target: T5, Glutathione S-transferase (GST) control …; assay: GST pull-down, immobilized GST control, in vitro translated 35S-labelled THAP1
Procedure: To confirm the interaction observed in yeast, we performed in vitro GST pull down assays. Par4DD, expressed as a GST-tagged fusion protein and immobilized on glutathione sepharose, was incubated with radiolabeled in vitro translated THAP1. To generate the GST-Par4DD expression vector, Par4DD (amino acids 250-342) was amplified by PCR with primers Par4.10 (5′-[…]-3′) (SEQ ID NO: 194) and Par4.5, and cloned in frame downstream of the Glutathion S-Transferase ORF, into the BamHI site of the pGEX-2T prokaryotic expression vector (Amersham Pharmacia Biotech, Saclay, France). GST-Par4DD(amino acids 250-342) fusion protein encoded by plasmid pGEX-2T-Par4DD and control GST protein encoded by plasmid pGEX-2T, were then expressed in E. Coli DH5α and purified by affinity chromatography with glutathione sepharose according to supplier's instructions (Amersham Pharmacia Biotech). The yield of proteins used in GST pull-down assays was determined by SDS-Polyarylamide Gel Electrophoresis (PAGE) and Coomassie blue staining analysis. In vitro-translated THAP1 was generated with the TNT-coupled reticulocyte lysate system (Promega, Madison, Wis., USA) using pGBKT7-THAP1 vector as template. […]

[6] = biological target: T4, Par4 deletion mutant lacking the …; assay: yeast two-hybrid (His/Ade selection)
Text: We then examined whether the leucine zipper/death domain at the C-terminus of Par4, previously shown to be involved in Par4 binding to WT-1 and aPKC, was required for the interaction between THAP1 and Par4. Two Par4 mutants were constructed for that purpose, Par4A and Par4DD. Par4A lacks the leucine zipper/death domain while Par4DD contains this domain. pGBKT7-Par4A(amino acids 1-276) and pGADT7-Par4A. were constructed by sub-cloning a EcoRI-BglII fragment from pGADT7-Par4 into the EcoRI and BamHI sites of pGBKT7 and pGADT7. Par4DD (amino acids 250-342) was amplified by PCR, using pGBKT7-Par4 as template, with primers Par4.4 (5′-[…]-3′) (SEQ ID NO: 193) and Par4.5, and cloned into the EcoRI and BamHI sites of pGBKT7 and pGADT7 to obtain pGBKT7-Par4DD and pGADT7-Par4DD. Two-hybrid interaction between THAP1 and Par4 mutants was tested by cotransformation of AH109 with pGBKT7-THAP1 and pGADT7-Par4A or pGADT7-Par4DD and selection of transformants by His and Ade double auxotrophy according to manufacturer's instructions ([…] two-hybrid system 3, Clontech). […] Similar results were obtained when two-hybrid experiments were performed in the opposite orientation using Par4 or Par4 mutants (Par4A and Par4DD) as baits instead of THAP1 (FIG. 3A).

Binder | binding result [1] | binding result [2] | binding result [3] | binding result (human THAP1 (THanatos …)) | binding result [4] | binding result [5] | binding result [6]
human chemokine SLC/CCL21, mature form (amino acids 24-134) (ligand, also called SLC/6Ckine; SLC/CCL21 wild type) SDGGAQDCCLKYSQRKIPAKVVRSYRKQEPSLGCSIPAILFLPRKRSQAELCADPKELWVQQLMQHLDKTPSPQKPAQGCRKDRGASKTGKKGKGSKGCKRTERSQTPKGP | binds | no binding | no binding | binds | no binding |  | 
B1 |  |  |  |  |  | no binding | no binding
